Experimental data from paper PMC4974639, “Crystal structures of APOBEC3G N-domain alone and its complex with DNA”.

Legend:
[1] = target: T1, rA3G-CD1 (loop-8 mutant) (Macaca mulatta (rhesus macaque), UniProt M1GSK9 1-138+=AEAG+147-196, internal_change); test: ITC; n=0.83; ITC: 100 mM NaCl, 50 mM HEPES pH 7.5, 25 C; EMSA: 60 mM HEPES pH 7.5, 100 mM NaCl, on ice 10 min, native PAGE; conditions: protein: recombinant; tags: GST tag removed with PreScission (pGEX-6P-1); chain copies: 2
[2] = target: rA3G-CD1 Y124A (Macaca mulatta (rhesus macaque), UniProt M1GSK9 1-138+=AEAG+147-196, Y124A;internal_change); test: ITC; ITC: 100 mM NaCl, 50 mM HEPES pH 7.5, 25 C; EMSA: 60 mM HEPES pH 7.5, 100 mM NaCl, on ice 10 min, native PAGE; conditions: protein: recombinant; tags: GST tag removed with PreScission (pGEX-6P-1)
[3] = target: rA3G-CD1 FWKL mutant (Macaca mulatta (rhesus macaque), UniProt M1GSK9 1-138+=AEAG+147-196, F126Y;W127S;K180S;L184S;internal_change); test: as above; conditions: protein: recombinant; tags: GST tag removed with PreScission (pGEX-6P-1)
[4] = target: T1, rA3G-CD1 (loop-8 mutant); test: EMSA; ITC: 100 mM NaCl, 50 mM HEPES pH 7.5, 25 C; EMSA: 60 mM HEPES pH 7.5, 100 mM NaCl, on ice 10 min, native PAGE; conditions: protein: recombinant, tags: GST tag removed with PreScission (pGEX-6P-1), chain copies: 2
[5] = target: T1, rA3G-CD1 (loop-8 mutant); test: ITC; n=1.47; ITC: 100 mM NaCl, 50 mM HEPES pH 7.5, 25 C; EMSA: 60 mM HEPES pH 7.5, 100 mM NaCl, on ice 10 min, native PAGE; conditions: protein: recombinant; tags: GST tag removed with PreScission (pGEX-6P-1); chain copies: 2

T1 sequence (M1GSK9 entry or part of it | mutant): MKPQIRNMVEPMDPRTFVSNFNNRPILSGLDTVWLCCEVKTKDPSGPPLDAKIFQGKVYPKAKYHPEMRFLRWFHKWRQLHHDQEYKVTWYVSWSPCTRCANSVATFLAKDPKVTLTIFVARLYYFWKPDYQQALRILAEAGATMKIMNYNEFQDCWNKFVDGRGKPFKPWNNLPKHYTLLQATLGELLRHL
Sequence of rA3G-CD1 FWKL mutant (M1GSK9 entry or part of it F126Y;W127S;K180S;L184S/| mutant): as the sequence (M1GSK9 entry or part of it | mutant) above, with F126Y, W127S, K176S, L180S counted along it
Sequence of rA3G-CD1 Y124A (M1GSK9 entry or part of it Y124A/| Y124A Y124A): as the sequence (M1GSK9 entry or part of it | mutant) above, with Y124A counted along it

Row | Binder | binding result [2] | binding result [3] | other results
1 | UAUUCAUUAU (ssRNA) [10 nt RNA] | no binding | no binding | Kd [1]: 1490 ± 180 nM
2 | ATTATTATTATTTATCCCTATTTATATTTATTGTTATTGTTATTGTTATA (ssDNA) [50 nt ssDNA] |  |  | binding result ([4]; label: 5'-FAM (EMSA)): binds
3 | AUUAUUAUUAUUUAUCCCUAUUUAUAUUUAUUGUUAUUGUUAUUGUUAUA (ssRNA) [50 nt RNA] |  |  | binding result ([4]; label: 5'-FAM): binds
4 | TTTTTTTTTT (ssDNA) [10 nt poly-dT ssDNA] | no binding | no binding | Kd [5]: 1570 ± 310 nM
